Reference: paper PMC5037822, “Molecular and Biochemical Analysis of Two Rice Flavonoid 3’-Hydroxylase to Evaluate Their Roles in Flavonoid Biosynthesis in Rice Grain” (International Journal of Molecular Sciences, 2016)
Changes are numbered by the printed parent chain. Numbers in names are those of the source.

What was measured:
CYP75B4-JJJ = biological target: T1, CYP75B4-JJJ (Oryza sativa, UniProt Q8LM92, E7V); experiment: substrate feeding of induced yeast, HPLC of […]'-hydroxylated product; format: cell-based; conditions: 50 μM substrate, whole yeast WAT11 culture, 28 °C, 7.5 h
T1 construct: full length, 535 residues, natural allele with Val7, C-terminal V5 and 6xHis tags, yeast WAT11 cells with Arabidopsis reductase ATR1
T1 sequence (Q8LM92 1-535 E7V): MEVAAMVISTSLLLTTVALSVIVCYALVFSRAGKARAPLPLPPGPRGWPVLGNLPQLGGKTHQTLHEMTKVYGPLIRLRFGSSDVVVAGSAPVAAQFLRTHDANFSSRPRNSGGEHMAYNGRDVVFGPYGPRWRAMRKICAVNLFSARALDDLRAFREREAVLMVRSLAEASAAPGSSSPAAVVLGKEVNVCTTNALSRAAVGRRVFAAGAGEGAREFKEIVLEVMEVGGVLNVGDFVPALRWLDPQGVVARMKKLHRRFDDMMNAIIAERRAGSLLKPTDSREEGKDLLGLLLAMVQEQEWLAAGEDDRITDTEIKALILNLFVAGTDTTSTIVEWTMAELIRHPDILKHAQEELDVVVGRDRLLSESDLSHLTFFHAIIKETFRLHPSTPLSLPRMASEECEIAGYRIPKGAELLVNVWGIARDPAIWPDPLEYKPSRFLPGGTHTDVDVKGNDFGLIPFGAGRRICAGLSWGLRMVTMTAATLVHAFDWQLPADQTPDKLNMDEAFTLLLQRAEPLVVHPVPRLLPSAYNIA

CYP75B4-HN = biological target: T2, CYP75B4-HN (Oryza sativa, UniProt Q8LM92, H351Q); experiment: as above; format: cell-based; conditions: 50 μM substrate, whole yeast WAT11 culture, 28 °C, 7.5 h
T2 construct: full length, 535 residues, natural allele with Gln351, C-terminal V5 and 6xHis tags, yeast WAT11 cells with Arabidopsis reductase ATR1
T2 sequence (Q8LM92 1-535 H351Q): T1 sequence (Q8LM92 1-535 E7V) with V7E, H351Q

[1] = substrate: O=c1cc(-c2ccc(O)cc2)oc2cc(O)cc(O)c12; experiment: cells, lysate or membranes; conditions: 1 mM NADPH, 100 mM Tris pH 7.5, 30 °C
[2] = substrate: O=c1c(O)c(-c2ccc(O)cc2)oc2cc(O)cc(O)c12; experiment: cells, lysate or membranes; format: biochemical, Oryza sativa; conditions: 1 mM NADPH, 100 mM Tris pH 7.5, 30 °C
[3] = substrate: O=C1CC(c2ccc(O)cc2)Oc2cc(O)cc(O)c21; experiment: cells, lysate or membranes; conditions: 1 mM NADPH, 100 mM Tris pH 7.5, 30 °C, racemic substrate
[4] = substrate: O=C1c2c(O)cc(O)cc2OC(c2ccc(O)cc2)C1O; experiment: cells, lysate or membranes; format: biochemical, Oryza sativa; conditions: 1 mM NADPH, 100 mM Tris pH 7.5, 30 °C, racemic substrate

Molecule: O=c1c(O)c(-c2ccc(O)cc2)oc2cc(O)cc(O)c12 [KAM, kaempferol]
- substrate feeding of induced yeast, HPLC of 3'-hydroxylated product (CYP75B4-JJJ): CYP75B4-IM, CYP75B4-HN, and CYP75B4-JJJ metabolized naringenin, apigenin, and kaempferol
- substrate feeding of induced yeast, HPLC of 3'-hydroxylated product (CYP75B4-HN): CYP75B4-IM, CYP75B4-HN, and CYP75B4-JJJ metabolized naringenin, apigenin, and kaempferol

Molecule: O=c1cc(-c2ccc(O)cc2)oc2cc(O)cc(O)c12 [API, apigenin]
- substrate feeding of induced yeast, HPLC of 3'-hydroxylated product (CYP75B4-JJJ): CYP75B4-IM, CYP75B4-HN, and CYP75B4-JJJ metabolized naringenin, apigenin, and kaempferol
- substrate feeding of induced yeast, HPLC of 3'-hydroxylated product (CYP75B4-HN): CYP75B4-IM, CYP75B4-HN, and CYP75B4-JJJ metabolized naringenin, apigenin, and kaempferol

B1: CYP75B4-IM (Oryza sativa Japonica Group) (protein)
chain: T1 sequence (Q8LM92 1-535 E7V) with V7E
notes: full length, 535 residues, C-terminal V5 and 6xHis tags (pYES-DEST52), yeast WAT11 microsomes with Arabidopsis reductase ATR1
- Km [1]: 0.240 ± 0.042 µM
- Vmax [1]: 0.008 µM/min/mg
- Km [2]: 2.948 ± 0.330 µM
- Vmax [2]: 0.007 µM/min/mg

B2: CYP75B3-IM (CYP75B3-JJJ) (Oryza sativa Japonica Group) (protein)
chain: MDVVPLPLLLGSLAVSAAVWYLVYFLRGGSGGDAARKRRPLPPGPRGWPVLGNLPQLGDKPHHTMCALARQYGPLFRLRFGCAEVVVAASAPVAAQFLRGHDANFSNRPPNSGAEHVAYNYQDLVFAPYGARWRALRKLCALHLFSAKALDDLRAVREGEVALMVRNLARQQAASVALGQEANVCATNTLARATIGHRVFAVDGGEGAREFKEMVVELMQLAGVFNVGDFVPALRWLDPQGVVAKMKRLHRRYDNMMNGFINERKAGAQPDGVAAGEHGNDLLSVLLARMQEEQKLDGDGEKITETDIKALLLNLFTAGTDTTSSTVEWALAELIRHPDVLKEAQHELDTVVGRGRLVSESDLPRLPYLTAVIKETFRLHPSTPLSLPREAAEECEVDGYRIPKGATLLVNVWAIARDPTQWPDPLQYQPSRFLPGRMHADVDVKGADFGLIPFGAGRRICAGLSWGLRMVTLMTATLVHGFDWTLANGATPDKLNMEEAYGLTLQRAVPLMVQPVPRLLPSAYGV
notes: full length, 526 residues, C-terminal V5 and 6xHis tags (pYES-DEST52), yeast WAT11 microsomes with Arabidopsis reductase ATR1
- Km [3]: 0.286 ± 0.015 µM
- Vmax [3]: 0.214 µM/min/mg
- Km [4]: 2.494 ± 0.350 µM
- Vmax [4]: 0.43 µM/min/mg
- Km [2]: 0.110 ± 0.008 µM
- Vmax [2]: 0.24 µM/min/mg

B3: CYP75B3-HN (Oryza sativa Japonica Group; R27H) (protein)
chain: B2 chain with R27H
notes: full length, 526 residues, natural allele with His27, C-terminal V5 and 6xHis tags, yeast WAT11 microsomes with Arabidopsis reductase ATR1
- Km [3]: 0.108 ± 0.009 µM
- Vmax [3]: 0.193 µM/min/mg
- Km [4]: 1.034 ± 0.107 µM
- Vmax [4]: 0.281 µM/min/mg
